The source of these data is article PMC10929192 (2024).

The target in the experiment is human PKM2 Ag (M2 splice isoform of pyruvate kinase), purified (human, UniProt P14618 1-531). The experiment is described as follows: SPR. In general terms: In SPR one partner is held on a chip, and binding of the other changes the refractive index at the surface.
Sequence of human PKM2 Ag (M2 splice isoform of pyruvate kinase), purified (P14618 whole entry, canonical isoform): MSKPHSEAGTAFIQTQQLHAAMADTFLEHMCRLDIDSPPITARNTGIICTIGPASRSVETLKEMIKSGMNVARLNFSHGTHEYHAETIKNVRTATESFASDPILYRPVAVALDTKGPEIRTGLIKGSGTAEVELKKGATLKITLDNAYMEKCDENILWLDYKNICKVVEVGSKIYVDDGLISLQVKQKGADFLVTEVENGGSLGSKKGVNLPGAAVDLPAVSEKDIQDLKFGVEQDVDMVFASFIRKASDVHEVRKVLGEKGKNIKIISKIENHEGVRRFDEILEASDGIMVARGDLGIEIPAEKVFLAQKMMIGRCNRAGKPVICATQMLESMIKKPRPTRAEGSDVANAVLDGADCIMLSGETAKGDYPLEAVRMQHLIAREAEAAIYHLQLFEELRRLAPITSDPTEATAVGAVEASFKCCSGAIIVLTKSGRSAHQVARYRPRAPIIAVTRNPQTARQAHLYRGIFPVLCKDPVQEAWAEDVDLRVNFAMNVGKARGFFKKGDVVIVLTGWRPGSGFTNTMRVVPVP

B1: human full-length H103 Ab (anti-PKM2 antibody, IgG1) (antibody, V domains shown)
VH: QVQLQESGPGLVRPSGTLSLICAVSGDSISSSIWWSWVRQSPGKGLEWIGYIYHNGNTYYNPSLESRVTISVDTSENQFSLKLSSVTAADTAVYYCARGYDSSGYYWTDDRYYFDYWGQGTLVTVSS
VL: NFMLTQPHSVSESPGKTVTISCTGSSGSIASNYVQWYQQRPGSAPTTVIYEDNQRPPGVPDRFSGSIDSSSNSASLTISALETEDEADYYCQSYDSRNIDVVFGGGTKVTVL
B1: binding was put at a Kd of 228 pM.

B2: Na2S2O4-cleaved HAP103 Ab (act-HAP103) (antibody, V domains shown)
VH: B1 VH
VL: B1 VL
B2 returned a Kd of 632 pM.

Usually Kd stands for the constant that tells how readily two partners part at equilibrium. Higher therefore signals a looser complex.
